Drawing on patent US7432342 (dated 2008), this text covers binding result and Kd for 40 molecules.

Assay [1] concerns the target PKA-RIIα-GFP (UniProt P13861).
Assay [2] addresses PKA-RIα-GFP (UniProt P10644).
Assay [3] concerns the target PKA-RIα-GFP (UniProt P10644). The source holds these as a separate data set.
Assay [4] has as its target T1, PKA RIα (full-length) (bovine, UniProt P00514). Put plainly: FP.
Assay [5] addresses T2, PKA RIIα (full-length) (mouse, UniProt P12367). Put plainly: FP.
Assay [6] concerns the target T2, PKA RIIα (full-length). Put plainly: FP. The source holds these as a separate data set.
Assay [7] concerns the target T1, PKA RIα (full-length). Put plainly: FP. The source holds these as a separate data set.
In assay [8] the target is PKA-RIα-GFP (UniProt P10644). Put plainly: SPR. (SPR reads the build-up and loss of mass on a sensor chip optically.)
Chain of PKA-RIα-GFP (P10644 whole entry): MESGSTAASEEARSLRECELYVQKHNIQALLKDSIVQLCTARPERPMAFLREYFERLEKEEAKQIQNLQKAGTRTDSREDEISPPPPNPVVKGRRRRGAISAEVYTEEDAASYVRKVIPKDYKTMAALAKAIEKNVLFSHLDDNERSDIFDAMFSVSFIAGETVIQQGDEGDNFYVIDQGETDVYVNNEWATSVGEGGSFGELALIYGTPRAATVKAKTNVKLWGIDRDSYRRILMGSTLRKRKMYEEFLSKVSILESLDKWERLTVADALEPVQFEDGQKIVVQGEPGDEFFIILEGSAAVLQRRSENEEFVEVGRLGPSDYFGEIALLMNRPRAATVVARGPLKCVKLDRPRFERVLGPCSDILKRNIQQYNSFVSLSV
Assay [9] deals with PKA-RIα-GFP (UniProt P10644). The source holds these as a separate data set.
In assay [10] the target is PKA-RIIα-GFP (UniProt P13861). This is another data set of the same source.
Chain of PKA-RIIα-GFP (P13861 2-404): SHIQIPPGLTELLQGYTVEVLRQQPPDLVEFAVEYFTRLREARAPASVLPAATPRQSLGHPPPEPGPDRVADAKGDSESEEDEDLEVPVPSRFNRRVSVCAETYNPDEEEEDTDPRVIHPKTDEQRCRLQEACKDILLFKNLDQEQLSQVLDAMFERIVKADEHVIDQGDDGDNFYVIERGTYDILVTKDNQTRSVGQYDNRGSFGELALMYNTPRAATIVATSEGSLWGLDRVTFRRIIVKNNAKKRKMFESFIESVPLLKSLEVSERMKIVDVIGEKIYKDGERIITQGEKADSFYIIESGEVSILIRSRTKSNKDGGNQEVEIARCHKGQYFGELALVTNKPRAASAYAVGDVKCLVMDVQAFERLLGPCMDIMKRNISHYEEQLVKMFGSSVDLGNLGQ
Assay [11] deals with PKA-RIIα-GFP (UniProt P13861). This is another data set of the same source.

Where two headings read alike, the source gives them in different places. Ends that are not written are not given here. Some results are limits rather than exact numbers.

T2 sequence (P12367 2-401): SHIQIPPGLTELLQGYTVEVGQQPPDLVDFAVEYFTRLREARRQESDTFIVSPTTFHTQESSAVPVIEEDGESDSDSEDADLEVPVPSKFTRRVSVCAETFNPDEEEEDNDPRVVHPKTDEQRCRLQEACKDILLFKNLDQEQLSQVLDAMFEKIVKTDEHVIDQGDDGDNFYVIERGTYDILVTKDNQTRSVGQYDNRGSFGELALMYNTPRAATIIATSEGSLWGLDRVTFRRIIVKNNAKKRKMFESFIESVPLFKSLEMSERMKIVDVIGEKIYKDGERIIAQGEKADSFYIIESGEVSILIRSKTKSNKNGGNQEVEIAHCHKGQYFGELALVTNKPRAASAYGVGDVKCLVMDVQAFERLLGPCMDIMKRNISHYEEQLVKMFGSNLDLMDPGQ
T1 sequence (P00514 2-380): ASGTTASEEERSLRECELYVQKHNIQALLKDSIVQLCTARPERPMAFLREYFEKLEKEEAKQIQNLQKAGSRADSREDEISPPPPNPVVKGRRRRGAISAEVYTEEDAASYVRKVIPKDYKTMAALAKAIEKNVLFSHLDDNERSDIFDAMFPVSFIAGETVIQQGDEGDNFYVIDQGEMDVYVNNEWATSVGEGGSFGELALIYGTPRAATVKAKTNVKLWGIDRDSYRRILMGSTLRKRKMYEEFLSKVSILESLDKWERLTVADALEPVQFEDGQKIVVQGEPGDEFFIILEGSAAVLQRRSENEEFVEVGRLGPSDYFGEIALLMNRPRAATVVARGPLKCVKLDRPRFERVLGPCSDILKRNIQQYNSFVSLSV

With VQGNTDEAQE [truncation SEQ 99], the binding result in the assay with PKA-RIIα-GFP [1] and with PKA-RIα-GFP [2] was “no binding” each time.
TDEAQEELAWKIAKMIVSD [truncation SEQ 8]: the binding result in the assay with PKA-RIα-GFP [3] is on record as “no binding”.
As usually defined, the Kd is a measure of binding affinity in units of concentration. A high value points to weaker binding. As for VQGNTDEAQEELAWKIAKMIVSDVMQQC(tetramethylrhodamine) [AKB(dual) WT], the Kd was determined as 0.048 µM in the assay with PKA RIα (full-length) [4], 0.0022 µM with PKA RIIα (full-length) [5], 0.0022 µM with PKA RIIα (full-length) [6] and 0.048 µM with PKA RIα (full-length) [7].
Molecule Ac-VQGNTDEAQEELAWKIAKMIVSDIMQQ [Ac-27mer Ile] gave a Kd with PKA-RIα-GFP [8] of 0.86 µM.
Consider VQGNTDEAQEELAWKI [truncation SEQ 93], for which the binding result in the assay with PKA-RIIα-GFP [1] and in the assay with PKA-RIα-GFP [2] was “no binding” in each case.
For the molecule VQGNTDEAQEELAWKIAKMIVS [truncation SEQ 87], the binding result with PKA-RIα-GFP [2] is reported as “no binding”.
Turning to AWKIAKMIVSDIMQQ [truncation SEQ 77], the binding result with PKA-RIα-GFP [9] was “no binding”.
For the molecule DEAQEELAWKIAKMIVS [truncation SEQ 9], in the assay with PKA-RIα-GFP [3], the binding result is “no binding”.
Still for that read-out and setting: to EAQEELAWKIAKMIV [truncation SEQ 4] belongs “no binding”.
For QEELAWKIAKM [truncation SEQ 11], the binding result with PKA-RIIα-GFP [10] and with PKA-RIα-GFP [3] was “no binding” throughout.
Take VQGNTDEAQEELAWKIA [truncation SEQ 92]: the binding result with PKA-RIIα-GFP [1] and with PKA-RIα-GFP [2] was “no binding” throughout.
For WKIAKMIVSDIMQQ [truncation SEQ 78], the binding result in the assay with PKA-RIα-GFP [9] and with PKA-RIIα-GFP [11] was “no binding” in each case.
Regarding KMIVSDIMQQ [truncation SEQ 82], the binding result with PKA-RIα-GFP [9] and with PKA-RIIα-GFP [11] was “no binding” each time.
Turning to VQGNTDEAQEELAW [truncation SEQ 95], the binding result in the assay with PKA-RIIα-GFP [1] and with PKA-RIα-GFP [2] was “no binding” each time.
For the molecule EELAWKIAK [truncation SEQ 12], the binding result with PKA-RIIα-GFP [10] and with PKA-RIα-GFP [3] was “no binding” in each case.
As to VQGNTDEAQEELAWK [truncation SEQ 94], the binding result with PKA-RIIα-GFP [1] and with PKA-RIα-GFP [2] was “no binding” throughout.
As for VQGNTDEAQEELAWKIAKMI [truncation SEQ 89], the binding result with PKA-RIIα-GFP [1] and with PKA-RIα-GFP [2] was “no binding” throughout.
IAKMIVSDIMQQ [truncation SEQ 80]: the binding result in the assay with PKA-RIα-GFP [9] and with PKA-RIIα-GFP [11] was “no binding” throughout.
For the molecule QEEFAWKIAKMIISDVFQQC [PV-48], the Kd was determined as 0.124 µM with PKA RIIα (full-length) [5] and 0.012 µM with PKA RIα (full-length) [7].
Regarding FEELAWKIAKMIWSDVFQQC [AKB(RI) PV-38], the dissociation constant Kd worked out at 0.0052 µM in the assay with PKA RIα (full-length) [4], 0.456 µM with PKA RIIα (full-length) [5], 0.456 µM with PKA RIIα (full-length) [6] and 0.0052 µM with PKA RIα (full-length) [7].
As to VQGNTDEAQEELAWKIAKM [truncation SEQ 90], the binding result in the assay with PKA-RIIα-GFP [1] and with PKA-RIα-GFP [2] was “no binding” throughout.
In turn, Ac-VQGNTDEAQEELAWKIAKMIVSDVMQQ-NH2 [Ac-27mer Val] had a Kd with PKA-RIα-GFP [8] of 0.5 µM.
As for VQGNTDEAQEELLWKIAKMIVSDVMQQC (also: fluorescently labeled) [AKB(RII)], the results for the Kd with PKA RIα (full-length) [4] and in the assay with PKA RIIα (full-length) [6] were 2.49 µM and 0.0027 µM, respectively.
On to FEELAWKIAKMIWSDVMQQC [PV-37], for which the Kd with PKA RIIα (full-length) [5] amounted to 0.15 µM; in the assay with PKA RIα (full-length) [7] it was 0.019 µM.
On to KIAKMIVSDIMQQ [truncation SEQ 79], for which the binding result with PKA-RIα-GFP [9] and with PKA-RIIα-GFP [11] was “no binding” throughout.
Regarding VQGNTDEAQEELA [truncation SEQ 96], the binding result in the assay with PKA-RIIα-GFP [1] and with PKA-RIα-GFP [2] was “no binding” each time.
For the molecule VQGNTDEAQEEL [truncation SEQ 97], the binding result with PKA-RIIα-GFP [1] and with PKA-RIα-GFP [2] was “no binding” in each case.
For the molecule VQGNTDEAQEELAWKIAKMIV [truncation SEQ 88], the binding result in the assay with PKA-RIα-GFP [2] is “no binding”.
As for Ac-DLAWKIAKMIVSDVMQQC [Ac-DLAWKIAKMIVSDVMQQC], the Kd was determined as 0.107 µM with PKA RIIα (full-length) [5] and 0.773 µM with PKA RIα (full-length) [7].
Regarding ELAWKIA [truncation SEQ 13], the binding result with PKA-RIIα-GFP [10] and with PKA-RIα-GFP [3] was “no binding” in each case.
For the molecule AQEELAWKIAKMI [truncation SEQ 10], the binding result with PKA-RIIα-GFP [10] and with PKA-RIα-GFP [3] was “no binding” in each case.
In the case of LAWKIAKMIVSDIMQQ [truncation SEQ 76], the binding result with PKA-RIα-GFP [9] was “no binding”.
On to FEELAWKIAKMIISDVFQQC [PV-49], for which the results for the dissociation constant Kd with PKA RIIα (full-length) [5] and with PKA RIα (full-length) [7] were 0.0025 µM and 0.0011 µM, respectively.
With VQGNTDEAQEELAWKIAK [truncation SEQ 91], the binding result in the assay with PKA-RIIα-GFP [1] and with PKA-RIα-GFP [2] was “no binding” in each case.
As for VQGNTDEAQEELAWKIAKMIVSD [truncation SEQ 86], the binding result with PKA-RIα-GFP [2] is “no binding”.
Consider QEEFAWKIAKMIVSDVFQQC [PV-47], for which the Kd with PKA RIIα (full-length) [5] was 0.089 µM; with PKA RIα (full-length) [7], 0.039 µM.
Regarding VQGNTDEAQEELAWKIAKMIWSDVMQQC [V21W], the dissociation constant (Kd) with PKA RIIα (full-length) [5] worked out at 0.083 µM; in the assay with PKA RIα (full-length) [7], 0.12 µM.
VQGNTDEAQEE [truncation SEQ 98]: the binding result with PKA-RIIα-GFP [1] and with PKA-RIα-GFP [2] was “no binding” each time.
In the case of AKMIVSDIMQQ [truncation SEQ 81], the binding result in the assay with PKA-RIα-GFP [9] and in the assay with PKA-RIIα-GFP [11] was “no binding” in each case.
On to VQGNTDEAQEELAWKIEKMIWSDVMQQC (also: fluorescently labeled) [AKB(null)], for which the Kd with PKA RIα (full-length) [4] was 0.998 µM; with PKA RIIα (full-length) [6], above 10 µM.
